The supplement of paper PMC10126150
± gives the standard deviation of the averaged measurements.

System: ATP
Experiment: switch fluorescence ratio, 500 uM ATP over buffer (Cy3 cluster intensity, sum of 5 cycles each) (fold (ratio)); higher = stronger signal-on switching upon ATP binding; sequences stand for … in TCGTCGGCAGCGTCAGATGTGTATAAGAGACAGTTTTTTTTTTTTTTTTTTTTTTTTT…TC
Conditions: aptamer strand: ATP DNA aptamer (quencher-CACCTGGGGGAGTATTGCGGAGGAAGG + anchor), 100 nM annealed; ATP concentration: 500 uM
Outline: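 After annealing to 100 nM quencher-labelled ATP aptamer, Cy3-labelled switching-strand clusters on a modified Illumina MiSeq flow-cell were imaged in selection buffer. A second image followed after 15 min with 500 uM ATP at 22 °C, and five such buffer/ATP cycles were done, each separated by NaOH stripping and re-annealing. The fluorescence ratio, averaged per switch-domain sequence, is summed target-cycle over summed buffer-cycle Cy3 intensity per cluster, with clusters outside 100-1000 RFU excluded.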
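Note: ATP exposure 15 min at 22 °C before imaging.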

| Sequence | switch fluorescence ratio |
| --- | --- |
| TTTTATAGCG | 0.99918 ± 0.00023 |
| TTTTATAGTT | 1 ± 0.023 |
| TTTTATATGC | 1.19 ± 0.27 |
| TTTTATATTA | 1 ± 0.04 |
| TTTTATCCCA | 1.004 ± 0.0067 |
| TTTTATCTAG | 1.01 ± 0.012 |
| TTTTATGAGA | 0.978 ± 0.031 |
| TTTTATGATT | 0.997 ± 0.04 |
| TTTTATGGTG | 0.994 ± 0.019 |
| TTTTATGGTT | 0.997 ± 0.032 |
| TTTTATGTAT | 1.06 ± 0.048 |
| TTTTATTAGA | 0.974 ± 0.065 |
| TTTTATTCTT | 0.987 ± 0.016 |
| TTTTATTGTT | 1.01 ± 0.034 |
| TTTTATTTGG | 0.983 ± 0.018 |
| TTTTCAAGAC | 1.31 ± 0.28 |
| TTTTCAATCT | 0.9933 ± 0.0073 |
| TTTTCACGCA | 1.57 ± 0.53 |
| TTTTCATACT | 1.07 ± 0.046 |
| TTTTCATTAA | 0.9932 ± 0.008 |
| TTTTCATTAG | 1.03 ± 0.026 |
| TTTTCCAAAG | 1.01 ± 0.055 |
| TTTTCCAATA | 1.52 ± 0.13 |
| TTTTCCAGCG | 1.03 ± 0.013 |
| TTTTCCCTAT | 1.41 ± 0.71 |

| Sequence | switch fluorescence ratio |
| --- | --- |
| TTTTCCCTGG | 1.46 ± 0.62 |
| TTTTCCGGGG | 1.04 ± 0.045 |
| TTTTCCGGGT | 1.02 ± 0.032 |
| TTTTCCGTAT | 1.18 ± 0.025 |
| TTTTCCTATG | 0.977 ± 0.019 |
| TTTTCCTCCC | 1.28 ± 0.24 |
| TTTTCCTCGC | 2.86 ± 0.27 |
| TTTTCCTGAT | 1 ± 0.017 |
| TTTTCCTTCT | 1.09 ± 0.089 |
| TTTTCCTTTC | 1.206 ± 0.011 |
| TTTTCGAAAT | 1.01 ± 0.024 |
| TTTTCGAATA | 1.009 ± 0.005 |
| TTTTCGATTA | 0.987 ± 0.016 |
| TTTTCGCTGG | 1.01 ± 0.049 |
| TTTTCGCTTA | 1.01 ± 0.03 |
| TTTTCGGACG | 1.03 ± 0.05 |
| TTTTCGGATG | 1.02 ± 0.028 |
| TTTTCGGCTT | 0.965 ± 0.031 |
| TTTTCGGGCA | 0.99223 ± 4.3e-05 |
| TTTTCGGTGG | 1.05 ± 0.019 |
| TTTTCGGTTA | 1.01 ± 0.015 |
| TTTTCTAAGG | 0.989 ± 0.085 |
| TTTTCTATTG | 1 ± 0.044 |
| TTTTCTATTT | 0.998 ± 0.018 |
| TTTTCTCGCT | 0.967 ± 0.02 |

| Sequence | switch fluorescence ratio |
| --- | --- |
| TTTTCTCTGT | 0.967 ± 0.023 |
| TTTTCTCTTC | 0.9808 ± 0.0054 |
| TTTTCTGACG | 1.03 ± 0.02 |
| TTTTCTGCGT | 1.02 ± 0.043 |
| TTTTCTGTTC | 0.988 ± 0.044 |
| TTTTCTTGCC | 1.09 ± 0.11 |
| TTTTCTTTTA | 1.001 ± 0.0032 |
| TTTTGAAACT | 0.9733 ± 0.0091 |
| TTTTGAAAGG | 0.976 ± 0.01 |
| TTTTGAAATC | 1.004 ± 0.0061 |
| TTTTGAAGGT | 0.997 ± 0.0099 |
| TTTTGACACG | 0.959 ± 0.03 |
| TTTTGACAGG | 1.03 ± 0.011 |
| TTTTGACGCG | 1.06 ± 0.052 |
| TTTTGAGAAT | 1.017 ± 0.0015 |
| TTTTGAGCCA | 0.983 ± 0.032 |
| TTTTGAGCGA | 1.07 ± 0.051 |
| TTTTGAGCTT | 1.04 ± 0.081 |
| TTTTGAGGG | 1.07 ± 0.061 |
| TTTTGAGGT | 1.02 ± 0.03 |
| TTTTGAGGTG | 1.06 ± 0.028 |
| TTTTGAGTAT | 0.967 ± 0.035 |
| TTTTGAGTT | 0.986 ± 0.076 |
| TTTTGAGTTA | 0.976 ± 0.039 |
| TTTTGATATT | 1.01 ± 0.035 |

| Sequence | switch fluorescence ratio |
| --- | --- |
| TTTTGATCGC | 1.36 ± 0.5 |
| TTTTGATGAG | 0.987 ± 0.021 |
| TTTTGATGGC | 1.01 ± 0.022 |
| TTTTGCACGC | 1.28 ± 0.2 |
| TTTTGCCATG | 1.04 ± 0.067 |
| TTTTGCCTCC | 1.09 ± 0.035 |
| TTTTGCGATC | 1.14 ± 0.021 |
| TTTTGCGCGC | 0.994 ± 0.029 |
| TTTTGCTCGT | 1.14 ± 0.2 |
| TTTTGCTGCA | 0.978 ± 0.013 |
| TTTTGCTGGA | 1.02 ± 0.031 |
| TTTTGCTGGG | 1.03 ± 0.11 |
| TTTTGCTGTT | 0.987 ± 0.033 |
| TTTTGGACTA | 1.05 ± 0.081 |
| TTTTGGCCAA | 1.01 ± 0.041 |
| TTTTGGCGAA | 0.989 ± 0.015 |
| TTTTGGCT | 1.02 ± 0.025 |
| TTTTGGCTCC | 0.99685 ± 0.00035 |
| TTTTGGGCAA | 1.31 ± 0.21 |
| TTTTGGGCAG | 0.971 ± 0.013 |
| TTTTGGGCGG | 0.99 ± 0.022 |
| TTTTGGGCGT | 1 ± 0.062 |
| TTTTGGGGCA | 1.07 ± 0.13 |
| TTTTGGGGTA | 0.993 ± 0.036 |
| TTTTGGGGTG | 1.05 ± 0.12 |

| Sequence | switch fluorescence ratio |
| --- | --- |
| TTTTGGGTG | 1.04 ± 0.04 |
| TTTTGGGTGT | 1.02 ± 0.059 |
| TTTTGGTAGT | 1.03 ± 0.063 |
| TTTTGGTCTT | 1 ± 0.028 |
| TTTTGGTTAA | 1.02 ± 0.041 |
| TTTTGGTTGC | 1.02 ± 0.032 |
| TTTTGGTTGG | 0.971 ± 0.028 |
| TTTTGGTTGT | 1.01 ± 0.029 |
| TTTTGGTTTC | 1.05 ± 0.11 |
| TTTTGTAATT | 1.1 ± 0.2 |
| TTTTGTATAA | 1.02 ± 0.02 |
| TTTTGTATTC | 1.05 ± 0.12 |
| TTTTGTCGCA | 0.9913 ± 0.0075 |
| TTTTGTCTGT | 1.01 ± 0.016 |
| TTTTGTGAAA | 0.997 ± 0.036 |
| TTTTGTGCGG | 0.98 ± 0.042 |
| TTTTGTGGAC | 0.996 ± 0.034 |
| TTTTGTGGCA | 0.987 ± 0.014 |
| TTTTGTGGTA | 1.03 ± 0.013 |
| TTTTGTTAGT | 0.997 ± 0.022 |
| TTTTGTTCCC | 1 ± 0.034 |
| TTTTGTTGCT | 0.956 ± 0.037 |
| TTTTGTTGT | 0.987 ± 0.024 |
| TTTTGTTTCC | 1.01 ± 0.062 |
| TTTTGTTTTG | 1 ± 0.043 |

| Sequence | switch fluorescence ratio |
| --- | --- |
| TTTTGTTTTT | 1.08 ± 0.44 |
| TTTTTAACAT | 0.993 ± 0.033 |
| TTTTTAACGA | 0.9688 ± 0.009 |
| TTTTTAATAT | 1.04 ± 0.062 |
| TTTTTACCAT | 1.04 ± 0.022 |
| TTTTTACTAA | 1.01 ± 0.011 |
| TTTTTACTCC | 1.48 ± 0.53 |
| TTTTTACTGG | 1 ± 0.03 |
| TTTTTAGAGG | 0.97 ± 0.041 |
| TTTTTAGGTT | 1.04 ± 0.064 |
| TTTTTATATC | 0.99 ± 0.028 |
| TTTTTATCCA | 0.976 ± 0.026 |
| TTTTTATGGC | 0.978 ± 0.028 |
| TTTTTATTCC | 1.02 ± 0.034 |
| TTTTTATTGA | 1 ± 0.034 |
| TTTTTCAAGA | 0.9897 ± 0.0088 |
| TTTTTCAGTT | 1 ± 0.033 |
| TTTTTCCGGG | 1.1 ± 0.11 |
| TTTTTCCGTT | 1.12 ± 0.27 |
| TTTTTCCTAT | 1.012 ± 0.0071 |
| TTTTTCGATT | 0.982 ± 0.026 |
| TTTTTCGTCT | 1.02 ± 0.028 |
| TTTTTCGTGG | 1.01 ± 0.022 |
| TTTTTCGTTT | 0.997 ± 0.034 |
| TTTTTCTACC | 1.035 ± 0.0091 |

| Sequence | switch fluorescence ratio |
| --- | --- |
| TTTTTCTAGT | 1.01 ± 0.02 |
| TTTTTCTCCC | 1.03 ± 0.049 |
| TTTTTGAAAC | 1.01 ± 0.027 |
| TTTTTGAAAT | 1.35 ± 0.6 |
| TTTTTGAACG | 1.02 ± 0.018 |
| TTTTTGAAGT | 1.01 ± 0.027 |
| TTTTTGAATG | 0.983 ± 0.032 |
| TTTTTGAATT | 1 ± 0.034 |
| TTTTTGACCT | 1.38 ± 0.24 |
| TTTTTGATAG | 0.9847 ± 0.0057 |
| TTTTTGATGG | 1.02 ± 0.037 |
| TTTTTGCAGT | 1.02 ± 0.082 |
| TTTTTGCATC | 1.2 ± 0.27 |
| TTTTTGCATG | 1.03 ± 0.047 |
| TTTTTGCCAC | 1 ± 0.043 |
| TTTTTGCGCG | 0.9974 ± 0.0065 |
| TTTTTGCGTT | 0.976 ± 0.037 |
| TTTTTGGACA | 0.993 ± 0.019 |
| TTTTTGGATG | 1.02 ± 0.057 |
| TTTTTGGCCT | 1.05 ± 0.052 |
| TTTTTGGCTT | 1.02 ± 0.093 |
| TTTTTGGGGA | 1 ± 0.025 |
| TTTTTGGTCC | 0.992 ± 0.011 |
| TTTTTGTAGG | 0.995 ± 0.016 |
| TTTTTGTGAA | 0.995 ± 0.033 |

| Sequence | switch fluorescence ratio |
| --- | --- |
| TTTTTGTGAG | 1.01 ± 0.039 |
| TTTTTGTTTA | 0.971 ± 0.038 |
| TTTTTTAACA | 1.01 ± 0.027 |
| TTTTTTAATC | 1.02 ± 0.03 |
| TTTTTTACAT | 1.01 ± 0.018 |
| TTTTTTACTC | 1 ± 0.039 |
| TTTTTTAGAT | 0.985 ± 0.022 |
| TTTTTTAGGC | 0.962 ± 0.041 |
| TTTTTTATAC | 1.02 ± 0.051 |
| TTTTTTATCC | 1.03 ± 0.089 |
| TTTTTTCCCT | 1.08 ± 0.12 |
| TTTTTTCCG | 1.08 ± 0.1 |
| TTTTTTCGGA | 1.01 ± 0.073 |
| TTTTTTCT | 0.987 ± 0.02 |
| TTTTTTCTAA | 0.973 ± 0.015 |
| TTTTTTGAAG | 0.997 ± 0.03 |
| TTTTTTGAGC | 0.996 ± 0.031 |
| TTTTTTGATC | 0.999 ± 0.034 |
| TTTTTTGCAT | 1.07 ± 0.19 |
| TTTTTTGCCT | 1.01 ± 0.038 |
| TTTTTTGCGG | 1.08 ± 0.22 |
| TTTTTTGGAA | 1.1 ± 0.16 |
| TTTTTTGGAG | 1.01 ± 0.023 |
| TTTTTTGGCC | 0.993 ± 0.036 |
| TTTTTTGGT | 0.986 ± 0.016 |
